Assay results as given in paper PMC10349104.
Several values for one entry are separate records, joined by “and”; a condition that tells them apart may be missing. Equal entries are not always repeated.

How the values were obtained:
[1] = biological target: EVA-A(Y44A) (Amblyomma americanum); test: SPR
[2] = biological target: EVA-A(L39P) (Amblyomma americanum); test: SPR
[3] = biological target: EVA-A(21-102) (A. americanum); test: SPR
[4] = biological target: EVA-A(1-98) (A. americanum); test: SPR
[5] = biological target: EVA-A(Y44A) (A. americanum); test: SPR
[6] = biological target: EVA-A(DN) (Amblyomma americanum); test: SPR
[7] = biological target: EVA-A(C8) (A. americanum); test: SPR
[8] = biological target: EVA-A(L39P) (A. americanum); test: SPR
[9] = biological target: EVA-A(DC) (Amblyomma americanum); test: SPR
[10] = biological target: EVA-A(C8) (Amblyomma americanum); test: SPR
EVA-4 = EVA-4 (UniProt P0C8E9); test: not stated; Kd of EVA-4 for human chemokines, three readings (source data of Supplementary Fig. 7); method and conditions not told for EVA-4

Chain of CCL4 (P13236 24-92): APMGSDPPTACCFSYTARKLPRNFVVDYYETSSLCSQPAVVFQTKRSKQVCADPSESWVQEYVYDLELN
Chain of CCL26 (Q9Y258 24-94): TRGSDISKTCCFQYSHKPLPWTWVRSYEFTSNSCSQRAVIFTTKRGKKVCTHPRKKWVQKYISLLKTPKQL
Chain of CCL13 (Q99616 17-98): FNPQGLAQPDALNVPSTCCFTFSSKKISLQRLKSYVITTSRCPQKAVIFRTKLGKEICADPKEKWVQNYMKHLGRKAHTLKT
Chain of CCL13, Q99616 17-98 (ligand; other documents disagree on this pair) (Q99616 17-98): as above
Chain of CCL19 (Q99731 22-98): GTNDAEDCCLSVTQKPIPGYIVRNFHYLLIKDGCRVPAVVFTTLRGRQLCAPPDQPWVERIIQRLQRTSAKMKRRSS

| Substance | Kd [1] | koff [1] | kon [1] | Kd [2] | koff [2] | kon [2] | Kd [3] | koff [3] | kon [3] | Kd [4] | koff [4] | kon [4] | Kd [5] | koff [5] | kon [5] | Kd [6] | koff [6] | kon [6] | Kd [9] | Kd [10] | other results |
| --- | --- | --- | --- | --- | --- | --- | --- | --- | --- | --- | --- | --- | --- | --- | --- | --- | --- | --- | --- | --- | --- |
| CCL16 (from UniProt O15467 24-120) (ligand) | 0.181 nM and 0.268 nM and 0.148 nM | 0.0001 s⁻¹ and 0.000143 s⁻¹ and 0.000134 s⁻¹ | 552000 M⁻¹ s⁻¹ and 534000 M⁻¹ s⁻¹ and 906000 M⁻¹ s⁻¹ | 0.188 nM and 0.138 nM | 0.000226 s⁻¹ and 0.000159 s⁻¹ | 1.2e+06 M⁻¹ s⁻¹ and 1.15e+06 M⁻¹ s⁻¹ | 0.22 nM | 0.00019 s⁻¹ | 831000 M⁻¹ s⁻¹ | < 0.1 nM | < 0.0001 s⁻¹ | 258000 M⁻¹ s⁻¹ | 0.2 nM | 0.00013 s⁻¹ | 664000 M⁻¹ s⁻¹ | 0.223 nM and 0.225 nM and 0.22 nM | 0.000191 s⁻¹ and 0.000182 s⁻¹ and 0.000181 s⁻¹ | 858000 M⁻¹ s⁻¹ and 809000 M⁻¹ s⁻¹ and 826000 M⁻¹ s⁻¹ | 0.000499 nM and 0.00352 nM and 0.00269 nM | 1.95 nM and 1.84 nM | Kd [7]: 1.9 nM; koff [7]: 0.00075 s⁻¹; kon [7]: 396000 M⁻¹ s⁻¹; Kd [8]: 0.17 nM; koff [8]: 0.00016 s⁻¹; kon [8]: 1.18e+06 M⁻¹ s⁻¹; kon [9]: 256000 M⁻¹ s⁻¹ and 253000 M⁻¹ s⁻¹ and 265000 M⁻¹ s⁻¹; koff [10]: 0.000666 s⁻¹ and 0.000831 s⁻¹; kon [10]: 341000 M⁻¹ s⁻¹ and 451000 M⁻¹ s⁻¹; Kd (EVA-4): 2.31 nM and 4.95 nM and 5 nM |
| CCL13, Q99616 17-98 (ligand; other documents disagree on this pair) |  |  |  |  |  |  |  |  |  |  |  |  |  |  |  |  |  |  |  |  | Kd (EVA-4): 258 nM and 234 nM and 267 nM |
| CCL23 (ligand) | 15.2 nM and 26.4 nM and 14.7 nM | 0.00168 s⁻¹ and 0.00185 s⁻¹ and 0.00176 s⁻¹ | 111000 M⁻¹ s⁻¹ and 70100 M⁻¹ s⁻¹ and 120000 M⁻¹ s⁻¹ | 1.15 nM and 0.794 nM and 1.49 nM | 0.000123 s⁻¹ and 0.00016 s⁻¹ and 0.000168 s⁻¹ | 107000 M⁻¹ s⁻¹ and 201000 M⁻¹ s⁻¹ and 113000 M⁻¹ s⁻¹ |  |  |  |  |  |  |  |  |  | 0.168 nM and 0.972 nM and 0.384 nM |  | 53100 M⁻¹ s⁻¹ and 56200 M⁻¹ s⁻¹ and 152000 M⁻¹ s⁻¹ | 0.105 nM and 0.44 nM and 0.794 nM | 13 nM and 34.4 nM and 13.6 nM | kon [9]: 144000 M⁻¹ s⁻¹ and 85600 M⁻¹ s⁻¹ and 201000 M⁻¹ s⁻¹; koff [10]: 0.00116 s⁻¹ and 0.00157 s⁻¹ and 0.0012 s⁻¹; kon [10]: 89700 M⁻¹ s⁻¹ and 45800 M⁻¹ s⁻¹ and 87600 M⁻¹ s⁻¹; Kd (EVA-4): 7.43 nM and 7.41 nM and 7.39 nM |
| CCL4 (from UniProt P13236 24-92) (ligand) | 0.753 nM and 0.7 nM and 0.513 nM | 0.000169 s⁻¹ and 0.000191 s⁻¹ and 0.000236 s⁻¹ | 224000 M⁻¹ s⁻¹ and 273000 M⁻¹ s⁻¹ and 460000 M⁻¹ s⁻¹ | 0.291 nM and 0.278 nM and 0.333 nM | 0.000211 s⁻¹ and 0.000223 s⁻¹ and 0.000297 s⁻¹ | 724000 M⁻¹ s⁻¹ and 801000 M⁻¹ s⁻¹ and 890000 M⁻¹ s⁻¹ | 4.95 nM | 0.00218 s⁻¹ | 461000 M⁻¹ s⁻¹ | 8.56 nM | 0.00087 s⁻¹ | 165000 M⁻¹ s⁻¹ | 0.66 nM | 0.0002 s⁻¹ | 319000 M⁻¹ s⁻¹ | 4.26 nM and 4.21 nM and 6.38 nM | 0.00229 s⁻¹ and 0.00217 s⁻¹ and 0.00209 s⁻¹ | 538000 M⁻¹ s⁻¹ and 516000 M⁻¹ s⁻¹ and 328000 M⁻¹ s⁻¹ | 4.06 nM and 17.6 nM and 4.03 nM | 70.8 nM and 65.2 nM and 78.1 nM | Kd [7]: 71.3 nM; koff [7]: 0.0215 s⁻¹; kon [7]: 293000 M⁻¹ s⁻¹; Kd [8]: 0.3 nM; koff [8]: 0.00023 s⁻¹; kon [8]: 805000 M⁻¹ s⁻¹; koff [9]: 0.000873 s⁻¹ and 0.000943 s⁻¹ and 0.00091 s⁻¹; koff [10]: 0.0133 s⁻¹ and 0.0132 s⁻¹ and 0.0382 s⁻¹; kon [10]: 188000 M⁻¹ s⁻¹ and 202000 M⁻¹ s⁻¹ and 489000 M⁻¹ s⁻¹ |
| CCL26 (from UniProt Q9Y258 24-94) (ligand) | 3.9 nM and 3.21 nM and 1.71 nM | 0.00136 s⁻¹ and 0.000659 s⁻¹ and 0.00101 s⁻¹ | 348000 M⁻¹ s⁻¹ and 205000 M⁻¹ s⁻¹ and 590000 M⁻¹ s⁻¹ | 0.183 nM and 0.176 nM and 0.197 nM | 0.000504 s⁻¹ and 0.000271 s⁻¹ and 0.000714 s⁻¹ | 2.75e+06 M⁻¹ s⁻¹ and 1.53e+06 M⁻¹ s⁻¹ and 3.62e+06 M⁻¹ s⁻¹ | 9.24 nM | 0.00049 s⁻¹ | 53000 M⁻¹ s⁻¹ | 1.89 nM | 0.00048 s⁻¹ | 357000 M⁻¹ s⁻¹ | 2.94 nM | 0.00101 s⁻¹ | 381000 M⁻¹ s⁻¹ | 9.99 nM and 8.95 nM and 8.79 nM | 0.000506 s⁻¹ and 0.000395 s⁻¹ and 0.000556 s⁻¹ | 50600 M⁻¹ s⁻¹ and 44200 M⁻¹ s⁻¹ and 63300 M⁻¹ s⁻¹ | 1.25 nM and 1.65 nM and 2.78 nM | 56.4 nM and 69.6 nM and 86.6 nM | Kd [7]: 70.9 nM; koff [7]: 0.00099 s⁻¹; kon [7]: 14000 M⁻¹ s⁻¹; Kd [8]: 0.19 nM; koff [8]: 0.00078 s⁻¹; kon [8]: 2.63e+06 M⁻¹ s⁻¹; koff [9]: 0.000481 s⁻¹ and 0.000673 s⁻¹ and 0.000777 s⁻¹; kon [9]: 384000 M⁻¹ s⁻¹ and 407000 M⁻¹ s⁻¹ and 280000 M⁻¹ s⁻¹; koff [10]: 0.00101 s⁻¹ and 0.000925 s⁻¹ and 0.00104 s⁻¹; kon [10]: 17900 M⁻¹ s⁻¹ and 13300 M⁻¹ s⁻¹ and 12000 M⁻¹ s⁻¹ |
| CCL13 (from UniProt Q99616 17-98) (ligand) | 0.0154 nM and 0.0339 nM and 0.0439 nM | 5.53e-05 s⁻¹ and 6.98e-05 s⁻¹ and 0.000105 s⁻¹ | 3.58e+06 M⁻¹ s⁻¹ and 2.06e+06 M⁻¹ s⁻¹ and 2.4e+06 M⁻¹ s⁻¹ | 0.0116 nM and 0.0158 nM and 0.035 nM |  | 2.5e+06 M⁻¹ s⁻¹ and 4.09e+06 M⁻¹ s⁻¹ and 3.18e+06 M⁻¹ s⁻¹ | 0.3 nM | 0.00087 s⁻¹ | 2.94e+06 M⁻¹ s⁻¹ | 1.42 nM | 0.00063 s⁻¹ | 458000 M⁻¹ s⁻¹ | < 0.1 nM | < 0.0001 s⁻¹ | 2.68e+06 M⁻¹ s⁻¹ | 0.298 nM and 0.304 nM and 0.285 nM | 0.000931 s⁻¹ and 0.000845 s⁻¹ and 0.000833 s⁻¹ | 3.12e+06 M⁻¹ s⁻¹ and 2.78e+06 M⁻¹ s⁻¹ and 2.92e+06 M⁻¹ s⁻¹ | 1.4 nM (2×) and 1.45 nM | 2.74 nM and 3.26 nM | Kd [7]: 2.91 nM; koff [7]: 0.00423 s⁻¹; kon [7]: 1.47e+06 M⁻¹ s⁻¹; Kd [8]: < 0.1 nM; koff [8]: < 0.0001 s⁻¹; kon [8]: 3.26e+06 M⁻¹ s⁻¹; koff [9]: 0.000625 s⁻¹ and 0.000669 s⁻¹ and 0.000651 s⁻¹; kon [9]: 448000 M⁻¹ s⁻¹ and 461000 M⁻¹ s⁻¹ and 466000 M⁻¹ s⁻¹; koff [10]: 0.00454 s⁻¹ and 0.00359 s⁻¹; kon [10]: 1.66e+06 M⁻¹ s⁻¹ and 1.1e+06 M⁻¹ s⁻¹ |
| CCL19 (from UniProt Q99731 22-98) (ligand) | 0.676 nM and 0.642 nM and 0.935 nM | 0.000322 s⁻¹ and 0.000363 s⁻¹ and 0.000401 s⁻¹ | 477000 M⁻¹ s⁻¹ and 566000 M⁻¹ s⁻¹ and 428000 M⁻¹ s⁻¹ | 1.4 nM and 1 nM and 1.62 nM | 0.000327 s⁻¹ and 0.000349 s⁻¹ and 0.000407 s⁻¹ | 233000 M⁻¹ s⁻¹ and 348000 M⁻¹ s⁻¹ and 252000 M⁻¹ s⁻¹ | 1.58 nM | 0.00053 s⁻¹ | 342000 M⁻¹ s⁻¹ | 0.16 nM | 3e-05 s⁻¹ | 144000 M⁻¹ s⁻¹ | 0.75 nM | 0.00036 s⁻¹ | 490000 M⁻¹ s⁻¹ | 1.34 nM and 1.49 nM and 1.92 nM | 0.000471 s⁻¹ and 0.000557 s⁻¹ and 0.000576 s⁻¹ | 352000 M⁻¹ s⁻¹ and 373000 M⁻¹ s⁻¹ and 301000 M⁻¹ s⁻¹ | 0.209 nM and 0.0874 nM and 0.187 nM | 13.2 nM and 15.6 nM and 19.7 nM | Kd [7]: 16.1 nM; koff [7]: 0.00345 s⁻¹; kon [7]: 245000 M⁻¹ s⁻¹; Kd [8]: 1.34 nM; koff [8]: 0.00036 s⁻¹; kon [8]: 278000 M⁻¹ s⁻¹; koff [9]: 3.17e-05 s⁻¹ and 1.17e-05 s⁻¹ and 2.75e-05 s⁻¹; kon [9]: 151000 M⁻¹ s⁻¹ and 134000 M⁻¹ s⁻¹ and 147000 M⁻¹ s⁻¹ |
